Results as given in article PMC12881670, “Investigation into ligand selectivity and bias at the formyl peptide receptor family” (The Journal of Pharmacology and Experimental Therapeutics, 2025).
Where no end group is shown, it is not given here. [ ]: non-standard residue; d: D form.

Key:
Assay in all cases: cell-based or functional assay
[1] = molecular target: T1, FLAG-tagged human FPR1 (Hs_FPR1) (human, UniProt P21462 1-350)
T1 sequence (looked up): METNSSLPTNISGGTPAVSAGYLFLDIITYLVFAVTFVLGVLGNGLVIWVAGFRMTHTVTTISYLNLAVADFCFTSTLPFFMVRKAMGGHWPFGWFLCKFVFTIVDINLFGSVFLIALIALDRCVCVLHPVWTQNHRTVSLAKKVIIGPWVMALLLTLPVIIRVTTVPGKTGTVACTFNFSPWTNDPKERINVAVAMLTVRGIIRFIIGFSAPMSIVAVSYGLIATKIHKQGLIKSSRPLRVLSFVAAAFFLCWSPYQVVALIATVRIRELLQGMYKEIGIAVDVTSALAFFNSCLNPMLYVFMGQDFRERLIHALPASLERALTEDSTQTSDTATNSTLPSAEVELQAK

[2] = molecular target: T2, FLAG-tagged mouse Fpr2 (Mm_Fpr2) (mouse, UniProt O88536 1-351)
T2 sequence (looked up): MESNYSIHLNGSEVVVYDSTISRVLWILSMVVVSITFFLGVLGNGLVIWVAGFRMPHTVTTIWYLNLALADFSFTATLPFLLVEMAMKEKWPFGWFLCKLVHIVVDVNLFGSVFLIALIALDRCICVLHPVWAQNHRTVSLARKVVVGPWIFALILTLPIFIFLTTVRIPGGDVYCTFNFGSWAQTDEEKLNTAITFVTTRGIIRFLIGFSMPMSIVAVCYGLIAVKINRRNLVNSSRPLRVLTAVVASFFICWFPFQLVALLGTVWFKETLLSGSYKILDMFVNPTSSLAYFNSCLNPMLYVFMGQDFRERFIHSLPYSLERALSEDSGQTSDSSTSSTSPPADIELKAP

[3] = molecular target: T3, FLAG-tagged mouse Fpr1 (Mm_Fpr1) (mouse, UniProt P33766 1-364)
T3 sequence (looked up): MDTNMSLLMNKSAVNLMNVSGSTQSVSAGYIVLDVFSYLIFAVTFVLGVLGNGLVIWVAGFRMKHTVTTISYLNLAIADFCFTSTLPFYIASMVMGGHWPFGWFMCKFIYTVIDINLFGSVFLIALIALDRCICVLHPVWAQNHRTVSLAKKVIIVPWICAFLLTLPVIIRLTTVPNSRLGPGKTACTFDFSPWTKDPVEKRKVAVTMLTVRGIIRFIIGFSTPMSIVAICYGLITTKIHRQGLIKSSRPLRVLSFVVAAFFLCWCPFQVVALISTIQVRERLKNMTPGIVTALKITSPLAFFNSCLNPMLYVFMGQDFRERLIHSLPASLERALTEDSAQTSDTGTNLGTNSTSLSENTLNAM

[4] = molecular target: T4, FLAG-tagged human FPR2 (Hs_FPR2) (human, UniProt P25090 1-351)
T4 sequence (looked up): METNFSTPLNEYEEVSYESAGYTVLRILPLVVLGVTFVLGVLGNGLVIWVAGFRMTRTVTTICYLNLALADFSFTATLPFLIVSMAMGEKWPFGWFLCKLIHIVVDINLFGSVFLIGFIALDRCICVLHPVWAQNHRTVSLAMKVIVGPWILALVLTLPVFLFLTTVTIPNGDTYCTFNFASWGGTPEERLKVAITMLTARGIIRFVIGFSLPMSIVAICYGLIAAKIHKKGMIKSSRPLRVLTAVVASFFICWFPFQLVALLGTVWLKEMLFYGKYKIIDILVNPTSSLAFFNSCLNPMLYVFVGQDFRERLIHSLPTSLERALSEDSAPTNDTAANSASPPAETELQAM

[5] = molecular target: T5, FLAG-Mm_Fpr2 C-terminally fused to Renilla Luciferase 8 (mouse, UniProt O88536 1-351)
T5 sequence (looked up): T2 sequence (looked up)

[6] = molecular target: T6, FLAG-Hs_FPR1 C-terminally fused to Renilla Luciferase 8 (human, UniProt P21462 1-350)
T6 sequence (looked up): T1 sequence (looked up)

[7] = molecular target: T7, FLAG-Hs_FPR2 C-terminally fused to Renilla Luciferase 8 (human, UniProt P25090 1-351)
T7 sequence (looked up): T4 sequence (looked up)

B1: WKYMVm (peptide)
peptide: WKYMV[dM]
notes: the last residue is the D form; the bought peptide is probably also an amide (surmise); source: bought: Tocris
receptor internalization (flow cytometry): Emax (% of 1 μM WKYMVm) [1]: 106%
receptor internalization (flow cytometry): Log EC50 (M) [1]: -7.49 log M
receptor internalization (flow cytometry): Emax (% of 1 μM WKYMVm) [2]: 102%
receptor internalization (flow cytometry): Log EC50 (M) [2]: -7.66 log M
receptor internalization (flow cytometry): Emax (% of 1 μM WKYMVm) [3]: 108%
receptor internalization (flow cytometry): Log EC50 (M) [3]: -8.01 log M
receptor internalization (flow cytometry): Emax (% of 1 μM WKYMVm) [4]: 97.5%
receptor internalization (flow cytometry): Log EC50 (M) [4]: -8 log M
BRET of receptor-RLuc8 with Venus-mGsi: Emax (% of 1 μM WKYMVm) [5]: 103%
BRET of receptor-RLuc8 with Venus-mGsi: Log EC50 (M) [5]: -7.51 log M
BRET of receptor-RLuc8 with Venus-mGsi: Emax (% of 1 μM WKYMVm) [6]: 112%
BRET of receptor-RLuc8 with Venus-mGsi: Emax (% of 1 μM WKYMVm) [7]: 100%
BRET of receptor-RLuc8 with Venus-mGsi: Log EC50 (M) [7]: -8.11 log M
